We go through 1 substance from patent US20190255310A1, “KIT FOR IN SITU DELIVERY OF A COMPOUND OF INTEREST” (Defymed, priority 2016, published 2019).

The subject of this series is diabetic rats. Nature of the series: Insulin delivery through catheter and implanted pocket in diabetic rats, plasmatic glycaemia. The format is in vivo, rat. The procedure: Rapid Insulin was injected through a catheter linked to a pocket as disclosed in the examples of WO 2015/086550 (three layer, including one of non-woven polymer).
The pocket was implanted in the intraperitoneal cavity of rats.

In the case of insulin, the “diffusion of insulin out of the device” value (inferred from glycaemia kinetics, pocket implanted intraperitoneally) is “instant diffusion”. Moreover, where the note is “insulin injected through catheter linked to pocket implanted in the intraperitoneal cavity (FIG. 2, circles)”, the plasmatic glycaemia result is “rapid decrease of plasmatic glycaemia”.
